# Source: article PMC3771576
# Target: rYbx1 (wild type) (Danio rerio (zebrafish)) (UniProt B5DE31)
# Test: EMSA
# Conditions: RNA EMSA; binding buffer and temperature not given; extract lysis buffer 20 mM Tris pH 8.0, 100 mM NaCl, 0.1 mM EDTA, 1 mM 6-aminohexanoic acid, 1 mM PMSF, 25% …
# Chain of rYbx1 (wild type) (Danio rerio (zebrafish)) (B5DE31 whole entry): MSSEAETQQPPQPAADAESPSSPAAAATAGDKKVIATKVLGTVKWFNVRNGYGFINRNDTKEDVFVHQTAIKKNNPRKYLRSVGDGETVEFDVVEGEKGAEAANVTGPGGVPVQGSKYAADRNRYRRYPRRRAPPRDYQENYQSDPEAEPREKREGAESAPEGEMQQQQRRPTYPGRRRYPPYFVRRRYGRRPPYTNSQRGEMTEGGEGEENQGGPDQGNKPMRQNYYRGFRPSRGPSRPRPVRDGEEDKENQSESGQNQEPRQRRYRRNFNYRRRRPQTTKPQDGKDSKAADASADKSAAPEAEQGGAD
sequence,measurement,value
GGGAGAGAUGCAGAGAAUGUGCAUGUAGAUGCUGUUAAAGUAACUUUUUAUAAUUCAUUGUAAUGUAAUAAUAAAAACUUUUACUAUGGGAUUCCUUUUUUUUC [vg1.3 probe],binding,no binding
GGGAGAUAUUUUAUGAGAUUUUAAGAUAUAAUUUUCUGUAUAUUUCUGCAAGCAAAAUGUAAAUUGACGCUCUAUAUAAGACACAUGGGCUUUCUCGUUCCCAC [wnt8a.2 probe],binding,no binding
GGGAGAACAAUUUUUCUUUUUUUAGGUGUGGAUUAAUGCAAAAUUAGGCUUCUUUUUAGAUGCAGAGAAUGUGCAUGUAGAUGCUGUUAAAGUAACUUUUUAUAAU [vg1.2 probe],binding,no binding
GGGAGAAGUGGAUGCAGAUGAACAUGACUUAAUUUUUAAAUGCACAAUUUGUUUAUUACAAUUUUUCUUUUUUUAGGUGUGGAUUAAUGCAAAAUUAGGCUUCUUUU [vg1.1 probe],binding,no binding
GGGAGAUGUCAAUUGAAUUCAUUGAAGUUCUAUUUUGAAGUUCAUUAUUUGCACUUUUUCGUUCUCGACAUAAGAUCACAGAUUUUGUUGCUCUCAAAAAAUGU [wnt8a.3 probe],binding,no binding
GGGAGAUUGUAUUUUUUCAUGCACAGAUCACUUGACAGUAUGCAGUGUUUCACGAUGAGGUUUAAAUGUUGUGUUUUAUGGAACUUAUUUAAGGCAAAUAUUUU [wnt8a.4 probe],binding,no binding
GGGAGACCGGCCGCACAACCAUUCACGCAAAAGACAACACACGCGUCGUGGAUGAAGUAAUCCUCUUUGCAAAUAUGUAAAGCUGUAUAUUUCUAAUGUAAAUA [wnt8a.1 probe],binding,no binding
